{"source": "the nanobody polyreactivity screen of Harvey et al. (2022)"}
{"experiment": "yeast display, Sf9 membrane polyspecificity reagent, FACS + sequencing; frameworks hold sequencing errors", "outline": "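A nanobody's polyreactivity label depends on the gate it was sorted from. Yeast display cells were stained with 10% biotinylated, detergent-solubilized Sf9 membrane reagent for 1 hour at 4 °C, enriched on streptavidin microbeads and sorted by FACS. The low and high (top ~1%) gates were set on anti-HA fluorescence for expression and streptavidin fluorescence for reagent binding.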"}
{"sequence": "QVQLGESGGGLVQAGGSLRLSCAASGITFTHYVMGLYRQAPGKERELVAAISTSGGRTYYADSVKGRFTISRDHAKNSVYLQMNSLKPEDTAVYYCAAVSRAPGLRYDYWGQGTQVTVSS", "polyreactivity (PSR sort gate)": "high polyreactivity"}
{"sequence": "QVQLGESGGGLVQAGGSLRLSCAASGLIFVWNDMGWYRQAPGKEGELVADISDGSTYADSVKGRFTISRDNAKNTVYVQMNRLQPEHTAVYYCNKDNHDVELPVEFEYWGQGTQVTVSS", "polyreactivity (PSR sort gate)": "high polyreactivity"}
{"sequence": "QVQLGESGGGLVQAGGSLRLSCAASGNIFYRYAMGWYRQAPGKERELVAAITSDGSTYYADSVKGRFTISRDNAKNTVYLQMNSLKPEDTAVYYCAARRGTGSYSYRYPYGYDYWGQGTQVTVSS", "polyreactivity (PSR sort gate)": "low polyreactivity"}
{"sequence": "QVQLGESGGGLVQAGGSLRLSCAASGRIFGAYAMGWYRPAPGKERELVAAITSRGGNTYYADSVKGRFTISRDNAKKTAYLQLNSLKPQDTAVYYCAARHDKRRQYYVGQSAFDYGGQGTQVTVSS", "polyreactivity (PSR sort gate)": "low polyreactivity"}
{"sequence": "QVQLGESGGGLVQAGGSLRLSCAASGRIFSKNAMGWYRQAPGKERELVASIRQSGSNTYADSVKGRFTISRVNAKNTVYVQMNSLKPEDTAVYNCAASYFPLNSGRKVGYWGQGTQVTVSS", "polyreactivity (PSR sort gate)": "low polyreactivity"}
{"sequence": "QVQLGESGGGLVQAGGSLRLSCAASGRIFSYYAMGWYRQAPGKERELVATIDRSGDPTSYADSVKGRFTISRDNAKNTVYLQMNSLKPEDTAVYYCAATSKRARYDSWGHGTQVTVSS", "polyreactivity (PSR sort gate)": "high polyreactivity"}
{"sequence": "QVQLGESGGGLVQAGGSLRLSCAASGRTFLKNALGWYRPAPGKERELVAAITSGGSTNYADSVKGRFTISRDNAKNTVYFQMNCLKPEDTAVYYCAAEYTYGSPYDYWGQGTQVTVSS", "polyreactivity (PSR sort gate)": "low polyreactivity"}
{"sequence": "QVQLGESGGGLVQAGGSLRLSCAASGRTFWSYAMGWYREAAGKERELVAAITSSGGTTNDADSVKGRFTISRDNAKNTVYLQMNSLKPEDTAVYYCAAYSWYFGSRYDYWGQGTQVTVSS", "polyreactivity (PSR sort gate)": "low polyreactivity"}
{"sequence": "QVQLGESGGGLVQAGGSLRLSCAASGRTFYTNARGWYRQAAGKARELAADISRGGTTYYADSVKGRFTISRDNAKNTVYLQMNSLKPQDTAVYYSAAEGHELTEGDSWGQGTQVTVSS", "polyreactivity (PSR sort gate)": "low polyreactivity"}
{"sequence": "QVQLGESGGGLVQAGGSLRLSCAASGSIFAYYAMGWYRQAPGKERELVAGISGSGGSTYYADSVKGRFTISRDNAKNTVYLQMNSLKPEDTAVYYCAVDGRRNGDVRYNYWGQGTQVTVSS", "polyreactivity (PSR sort gate)": "high polyreactivity"}
{"sequence": "QVQLGESGGGLVQAGGSLRLSCAASGSIFRGYAMGWYRQAPGKGRELVAAISWSGASTYYADSVKGRFTISLDNAKNTVYLQMNSLKPEDTAVYYCAAVQWTGYPFDYWGQGTQVTVSS", "polyreactivity (PSR sort gate)": "high polyreactivity"}
{"sequence": "QVQLGESGGGLVQAGGSLRLSCAASGSIFRSYAMGWYRQAPGKERELVAAISWRGGRTYYADSVKGRFTISRDNAKNTVYLQMNSLKPEDTAVYYCAARNRAQQGTRDHDYWGQGTQVTLSS", "polyreactivity (PSR sort gate)": "high polyreactivity"}
{"sequence": "QVQLGESGGGLVQAGGSLRLSCAASGSIFVRNAMGWYRQAPGKERELVAAINGRGTSTYYADSVKGRFTISRDNAKNTVYLQMNSLKPEDTAVYYCATSLTSPRRAYGYWGQGTQVTVSS", "polyreactivity (PSR sort gate)": "high polyreactivity"}
{"sequence": "QVQLGESGGGLVQAGGSLRLSCAASGSMFYSNARGWYRQAPGTERELVASIRGSGVSTYYADSVKGRFTISRDNAKNTVYLPMNSLKPEDTAVYDCAPRYGRSYFGYYYWGQGTQVTVSS", "polyreactivity (PSR sort gate)": "high polyreactivity"}
{"sequence": "QVQLGESGGGLVQAGGSLRLSCAASGSTFITYAMGLYRQAPGKERELVAAITRGGRRYYADSVKGRFTISRDNAKNTVYLQMNSLKPEDTAVYYCAARDWASHTPFDYWGQGTQVTVSS", "polyreactivity (PSR sort gate)": "high polyreactivity"}
{"sequence": "QVQLGESGGGLVQAGGSLRLSCAASGSTFNIYAMGWSRQSPGNERELVAAISSCGGRTYYADSVKGRFTISLDNAKNTVYLQMNSVKPEDTAVYYCAAVRSYYRGYDYWGQGTQVTVSS", "polyreactivity (PSR sort gate)": "high polyreactivity"}
{"sequence": "QVQLGESGGGLVQAGGSLRLSCAASGSTFRINAMGWYRQAPGKERELVADINSGGNTTYADSVKGRFTISRDNAKNTVYLQMNSLKPEDTAVYYCAAPRTYYSELTSPYDYCGQGTQVTVSS", "polyreactivity (PSR sort gate)": "low polyreactivity"}
{"sequence": "QVQLGESGGGLVQAGGSLRLSCAASGSTFVRYAMGWYRQAPGKERELVAGISYSGGRTYYADSVKGRFTISRDNAKNTVYLQMNSLKPEDTAVYYCAAEGTTSWWVKYGYWGQGTQVTVSS", "polyreactivity (PSR sort gate)": "low polyreactivity"}
{"sequence": "QVQLGESGGGLVQAGGSRRLSCAASGLIFASNAMGWYRQAPGKEREFDAAISISGGSTYYADSVKGRFTISRDNAKNTVYLQMNSLKPEDTAVYYCAAKLYTVRRPELDYWGQGTQVTVSS", "polyreactivity (PSR sort gate)": "low polyreactivity"}
{"sequence": "QVQLGESGGGLVQAVGSLRLSCAASGITFVYYAMGWSRQEPGKERELVSSISSADNTNYADSVKGRFTISRDNAKNTVYLQMNSLKPEDTAVYYCAADYWWHLRHYSTGGYWGQGTQVTVSS", "polyreactivity (PSR sort gate)": "low polyreactivity"}
{"sequence": "QVQLGESGGRLVQAGGSLRLSCAASGSTFPTNAMGWSRQGPGKERELVAAITSTGSTYADSVKGRYTISRDNVKNTVYLQMNSVKPEDTAVYYCAADTQWTTPYDYWGQGTQVTVSS", "polyreactivity (PSR sort gate)": "low polyreactivity"}
{"sequence": "QVQLGESGVGLVQAGGSHRLSCAASGSTSPINAMGWYRQAPGKERELVAVISSSGGRTYYADSVKGRFTISRDNAKNTVYLQMNSLKPEDTAVYYCANRFSRRQPDYDYWGQGTQVTVSS", "polyreactivity (PSR sort gate)": "high polyreactivity"}
{"sequence": "QVQLHESGGGLEQEGGSLRLTCEASGNISPPADMGWYRQAPRKERELVASIGTGGTTNYADIVKARFTISRDNAKNTVYLQMNSLKPDDTSVYYWAAVRYEYNPYDYWGQGTQVTVSS", "polyreactivity (PSR sort gate)": "low polyreactivity"}
{"sequence": "QVQLHESGGGLLQAGGTLRLSCAASGTISYAGPMCWYRQSPGKEREFVAGIGVGSNTNYADSVKGRYTIIRDNAKNTVYLQMNSLKPEDTAVYYCAVGGFAPLGRPYWGQGTQVTVSS", "polyreactivity (PSR sort gate)": "low polyreactivity"}
{"sequence": "QVQLHESGGGLVQAGGSLRLSCAASGTISVTYNMAWYRQAPGKEREFVAGNSTGATTNYADSVKGRFTISRDNAKNTVYLQMNSLKPEDTAVYYCAAHIYRQDHFYYWGQGTQVTVSS", "polyreactivity (PSR sort gate)": "low polyreactivity"}
{"sequence": "QVQLHESGGGLVQAGGSLRLSCAASGTISYAGPMGWYRQAPGKEREFVAGIGVGSNTNYADSVKGRYTIIRDNAKNTVYLQMNSLKPEDTAVDYCAVGGYAPLGRPYWGQGTQVTVSS", "polyreactivity (PSR sort gate)": "low polyreactivity"}
{"sequence": "QVQLHESGGGLVQAGGSLRLSCAASGTISYAGPMGWYRQAPGKEREFVAGIGVGSNTNYADSVKGRYTIIRDNAKNTVYLQMNSLQPEDTAVYYCAVGGFAPLGRPYWGQGTQVTVSS", "polyreactivity (PSR sort gate)": "low polyreactivity"}
{"sequence": "QVQLHESGGGMVQAGGSLRLSSAASGIIFDNPNMGWYRLSPGKERELVATINSGATTNYADSVKGRFTISRDNEKNTVYLLMNSLIPEETAVYFCAVDLSPTYFYYWGQGTKVTVSS", "polyreactivity (PSR sort gate)": "high polyreactivity"}
{"sequence": "QVQLIESGGGLVKAGGSLRLSCAATGSIFYRNTMGWYRQAPGKERELVARISWSGGRTYYADSVKGRFTISRDNAKNTVYLQMNSLKPEDTAVYYCAASTYGQRGTSYGYWGQGTQVSVSS", "polyreactivity (PSR sort gate)": "low polyreactivity"}
{"sequence": "QVQLIESGGGLVQAGGSLRLSCAASGIIFRTYAMGWYRQAPGKERELVAAITSGGSTNYADSVKGRFTISRDNAKNTVYLQMNSLKPEDTAVYYCAARTYTSRYSYGYWGQGTQVTVSS", "polyreactivity (PSR sort gate)": "high polyreactivity"}
{"sequence": "QVQLIESGGGLVQAGGSLRLSCAASGSTFERNTMGWYRQAPGKERELVAAITSGGRTYYADSVKGRFTISRDNAKNTVYLQMNSLKPEDTAVYYCAARLGRHVSYWRSGWTNMDYWGQGTQVTVSS", "polyreactivity (PSR sort gate)": "high polyreactivity"}
{"sequence": "QVQLIESGGGLVQAGGSLRLSCAASGSTFYGNAMGWYRQAPGKEREFVDAITGSGDSTDYADSVKGRFTISRDNAKNTVYLQMNSLKPEDTAVYFCNAEVFDRDSYEYWGQGTQVSVSS", "polyreactivity (PSR sort gate)": "low polyreactivity"}
{"sequence": "QVQLIESGGGLVQAGGSLRLSCAASGSTLGLYDMGWYRQAPGKERELVAAISTGSGSTYYADSVKGRFTISRDNAKYTVYLLMISLKPEDTAVYYCNTDAWYSPIWFWVDSWGQGTQVTVSS", "polyreactivity (PSR sort gate)": "low polyreactivity"}
{"sequence": "QVQLIESGGVLVQAGGSLRLSCAASGSTFTINVMGWYRQAPGKERELVAAINGGGRTNYADSVKGRFTISRDNAKNTVYLQINSLKPEDTAVYYCAADGLSNVRQMDYWGQGTQVTVSS", "polyreactivity (PSR sort gate)": "low polyreactivity"}
{"sequence": "QVQLKESGAGLVQAGGSLRLCCAASGNIIPDAGMGWYRQAPGKEREFVAGISRGANTYYADSVKGRFTISRDNAKNSVYLQMNSLKPEDTAVYYCNAGSSYLCRFPLDYWGQGTQVTVSS", "polyreactivity (PSR sort gate)": "high polyreactivity"}
{"sequence": "QVQLLDSGGGLVQAGGSLRLSCAASGFIFRPYPMACYRQSPGKERELVAPITGGGSTYYADSVKGRFTISRENAKNTVYLQMNSLKPEDTAVYYCNADRRRRSGGFAGWHFQRNDFWGQGTQVTVSS", "polyreactivity (PSR sort gate)": "low polyreactivity"}
{"sequence": "QVQLLESAGGLVQAGGSLRLICAASGSTFYNYAMGWYRQAPGKERELVDSITSSGVSTYYADSVKGRFTISRDIAKNTVYLQMNSLKPDDTAVYYCNADDGYGQVHSISTYEMDYWGQGTQVTVSS", "polyreactivity (PSR sort gate)": "low polyreactivity"}
{"sequence": "QVQLLESGCGLVQAGGSLRLSCMASGSILGDRMSWYRQAPGKEHELVATIYDGGITYYADSMKGRFTISRDNAKNTVYLQMNSLRPEDTAVYYCGASFEGYRYHVYCGQGTQVTVSS", "polyreactivity (PSR sort gate)": "low polyreactivity"}
{"sequence": "QVQLLESGGCLVQAGGSLRLSCAASGSTFWHNAMGWYRQAPGKERELVAAISSGSSTYYADSVKGRFTISRDNAKNTVYLQMNSLKPEDTAVYYCAKELYLGYRYWGYYWGQGTQVTVSS", "polyreactivity (PSR sort gate)": "high polyreactivity"}
{"sequence": "QVQLLESGGGIVQAGGSHRLRCAASGSIFGTNAMCWYRQATGKERELVAAISLSTGSTYYADSVKGRFTISRDNAKNTVYLQMNSLKPEDTAVYYCAAYYVTPIYYYWGQGTQVTVSS", "polyreactivity (PSR sort gate)": "low polyreactivity"}
{"sequence": "QVQLLESGGGLDQAGGSLRLTSAASGSIFYGYAMGWYRQAPRKERELVAAISYSGDRTYYADSVKGRFTISRDNAKNTVYLQMNSLKPEDTAVYYCAARKHGGTVRGRRDYWGQGTQVTVSS", "polyreactivity (PSR sort gate)": "high polyreactivity"}
{"sequence": "QVQLLESGGGLVKAGGSLRVSCAASGLTFNYYAMGWYRHAPGKDRELCAAISRRGGYTYYADSVKGRFTISRDNAKNTVYVQKNSQKPEDTAVYDCAADNYEHNYYGYYYWGQGNQVTVSS", "polyreactivity (PSR sort gate)": "high polyreactivity"}
{"sequence": "QVQLLESGGGLVQAGGSLLLSCAASGLTFHRYAMGWYRQAPGKERELFAAINYSGGRTYYADSVKGRFTISRDNAKNTVYLQMNSLKPEDSAVYYCAARYLGCDYSGSWWKYYYWGQGTQVTVSS", "polyreactivity (PSR sort gate)": "high polyreactivity"}
